These results are taken from US20240270826A1 (NATIONAL RESEARCH COUNCIL OF CANADA, published 2024).

The target in one test is RBD_SARS-CoV (aa306-527) (SARS-CoV, UniProt P59594 306-527). Kind of test: SPR, RBD over captured VHH-Fc. A general note: Surface plasmon resonance follows binding to a sensor surface in real time, without labels.
Test [1] addresses T1, RBD (aa319-541) (Wuhan) (SARS-CoV-2 (Wuhan), UniProt P0DTC2 319-541). The test is described as follows: SPR, RBD over captured VHH-Fc.
Test [2] deals with T2, SARS-CoV-2 S1-NTD (aa16-305) (SARS-CoV-2 Wuhan, UniProt P0DTC2 16-305). Kind of test: ELISA.
Test [3] concerns the target T3, SARS-CoV-2 S2 (aa686-1208) (Wuhan) (SARS-CoV-2 Wuhan, UniProt P0DTC2 686-1208).
T3 construct: NRC; FLAG, 6xHis tags
Kind of test: ELISA. Background: In an ELISA, binding on a coated surface is turned into a signal by an enzyme label.

Test [4] deals with T1, RBD (aa319-541) (Wuhan). Kind of test: SPR, RBD over captured VHH-Fc (per Table 11 footnote).
Test [5] has as its target T4, SARS-CoV-2 S on CHO-S cells (SARS-CoV-2, UniProt P0DTC2 14-1273).
T4 construct: whole, on cells
Kind of test: flow cytometry, CHO-S cells.

Test [6] addresses SARS-CoV-2 RBD (aa319-541) (Wuhan), monomeric (SARS-CoV-2 Wuhan, UniProt P0DTC2 319-541). The test is described as follows: SPR, monomeric RBD over captured VHH-Fc.
The target of test [7] is T3, SARS-CoV-2 S2 (aa686-1208) (Wuhan). Kind of test: SPR; 'nd' read as spanning the three S1 columns, the dashes as the S2 block.
Test [8] has as its target T5, ACE2-Fc (human ACE2 aa18-740 fused to human IgG1 Fc) (human, UniProt Q9BYF1 18-740).
T5 construct: range 18-740
The test is described as follows: ELISA.

For test [9], the target named is Human SARS-CoV-2_Wuhan S (SmT1) (SARS-CoV-2 (Wuhan), UniProt P0DTC2 14-1208). The test is described as follows: tandem SPR, immobilized S, orientation 1: VHH alone.
For test [10], the target named is T6, SARS-CoV-2 S1 (aa16-685) (Wuhan) (SARS-CoV-2 Wuhan, UniProt P0DTC2 16-685).
T6 construct: NRC; FLAG, 6xHis tags
The test is described as follows: SPR single-cycle kinetics, VHH over immobilized S1 [cont.].

Test [11] has as its target T3, SARS-CoV-2 S2 (aa686-1208) (Wuhan). The test is described as follows: SPR single-cycle kinetics, VHH over immobilized S2 [cont.].
The target in the next test is SARS-CoV spike (S) (SARS-CoV, UniProt P59594 14-1195). The test is described as follows: ELISA.
Test [12] addresses T2, SARS-CoV-2 S1-NTD (aa16-305). The test is described as follows: ELISA, coated antigen.
Test [13] has as its target T7, SARS-CoV-2 spike trimer S (Wuhan, SmT1) (SARS-CoV-2 Wuhan).
T7 construct: extracellular domain
The test is described as follows: ELISA, coated antigen, apparent EC50.

For test [14], the target named is T6, SARS-CoV-2 S1 (aa16-685) (Wuhan). The test is described as follows: ELISA, coated antigen, apparent EC50.

T5 sequence (Q9BYF1 18-740 limits assumed): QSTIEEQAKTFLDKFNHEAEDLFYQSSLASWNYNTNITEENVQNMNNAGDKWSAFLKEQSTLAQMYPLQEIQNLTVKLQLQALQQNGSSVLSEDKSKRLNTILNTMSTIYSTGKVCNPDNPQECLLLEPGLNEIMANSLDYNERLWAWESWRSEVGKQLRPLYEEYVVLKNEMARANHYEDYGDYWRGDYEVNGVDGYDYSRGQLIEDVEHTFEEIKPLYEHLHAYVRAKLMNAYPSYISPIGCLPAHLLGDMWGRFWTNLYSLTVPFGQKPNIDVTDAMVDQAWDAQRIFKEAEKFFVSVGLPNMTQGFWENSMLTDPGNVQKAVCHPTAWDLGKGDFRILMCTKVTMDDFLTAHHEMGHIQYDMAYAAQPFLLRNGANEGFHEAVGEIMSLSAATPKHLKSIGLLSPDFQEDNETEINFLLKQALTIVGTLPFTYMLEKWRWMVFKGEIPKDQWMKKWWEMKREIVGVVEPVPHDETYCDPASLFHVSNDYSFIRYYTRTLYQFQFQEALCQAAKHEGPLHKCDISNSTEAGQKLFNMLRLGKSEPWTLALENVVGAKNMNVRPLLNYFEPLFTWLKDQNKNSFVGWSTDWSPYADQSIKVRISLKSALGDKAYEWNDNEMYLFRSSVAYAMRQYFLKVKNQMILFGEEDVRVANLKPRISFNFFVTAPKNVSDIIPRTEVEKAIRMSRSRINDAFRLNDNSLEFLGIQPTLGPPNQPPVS

B1: NRCoV2-12 VHH-Fc (Fc fusion)
chain: EVQLQQSGGGLVQAGGSLRLSCAASGRTFRNYVMGWFRQAPQAPGKDHEFVAAISWGGTEIYYADSVKGRFTISRDNAKNTVYLQMNSLKPEDTAVYYCAADRGLSYYYTRTTEYNYWGQGTQVTVSS
With B1, in the test with RBD_SARS-CoV (aa306-527), binding was put at a Kd of 2.69 nM; the koff – broadly, a measure of how fast the partners let go of each other – was 0.00101 s⁻¹; the kon – broadly, the second-order rate constant of association – worked out at 376000 M⁻¹ s⁻¹. Moreover, in the test with RBD (aa319-541) (Wuhan) [1], binding was characterised by a dissociation constant (Kd) of 0.0469 nM, the off-rate constant (koff) came out at 3.5e-05 s⁻¹ and the kon was found to be 747000 M⁻¹ s⁻¹. Also, the binding result in test [2] is given as “no binding (tested: 13 nM)”. In test [3], the binding result is on record as “no binding (tested: 13 nM)”. Binding with RBD (aa319-541) (Wuhan) [4] was put at a Kd of 0.047 nM. For the same molecule, in [5], the Bmax turned out to be 21800 and a half-maximal response (EC50) required 0.8 nM.

B2: NRCoV2-12 VHH-Fc (Fc fusion)
chain: B1 chain
notes: bivalent
B2: in test [6], binding was characterised by a dissociation constant (Kd) of 0.0486 nM, the off-rate constant (koff) was determined as 3.69e-05 s⁻¹ and the association rate constant (kon) was found to be 760000 M⁻¹ s⁻¹. In test [7], the binding result is “no binding”.

B3: Human CoV-HKU1 S (other)
chain: AVIGDFNCTNSFINDYNKTIPRISEDVVDVSLGLGTYYVLNRVYLNTTLLFTGYFPKSGANFRDLALKGSIYLSTLWYKPPFLSDFNNGIFSKVKNTKLYVNNTLYSEFSTIVIGSVFVNTSYTIVVQPHNGILEITACQYTMCEYPHTVCKSKGSIRNESWHIDSSEPLCLFKKNFTYNVSADWLYFHFYQERGVFYAYYADVGMPTTFLFSLYLGTILSHYYVMPLTCNAISSNTDNETLEYWVTPLSRRQYLLNFDEHGVITNAVDCSSSFLSEIQCKTQSFAPNTGVYDLSGFTVKPVATVYRRIPNLPDCDIDNWLNNVSVPSPLNWERRIFSNCNFNLSTLLRLVHVDSFSCNNLDKSKIFGSCFNSITVDKFAIPNRRRDDLQLGSSGFLQSSNYKIDISSSSCQLYYSLPLVNVTINNFNPSSWNRRYGFGSFNLSSYDVVYSDHCFSVNSDFCPCADPSVVNSCAKSKPPSAICPAGTKYRHCDLDTTLYVKNWCRCSCLPDPISTYSPNTCPQKKVVVGIGEHCPGLGINEEKCGTQLNHSSCFCSPDAFLGWSFDSCISNNRCNIFSNFIFNGINSGTTCSNDLLYSNTEISTGVCVNYDLYGITGQGIFKEVSAAYYNNWQNLLYDSNGNIIGFKDFLTNKTYTILPCYSGRVSAAFYQNSSSPALLYRNLKCSYVLNNISFISQPFYFDSYLGCVLNAVNLTSYSVSSCDLRMGSGFCIDYALPSSRRKRRGISSPYRFVTFEPFNVSFVNDSVETVGGLFEIQIPTNFTIAGHEEFIQTSSPKVTIDCSAFVCSNYAACHDLLSEYGTFCDNINSILNEVNDLLDITQLQVANALMQGVTLSSNLNTNLHSDVDNIDFKSLLGCLGSQCGSSSRSLLEDLLFNKVKLSDVGFVEAYNNCTGGSEIRDLLCVQSFNGIKVLPPILSETQISGYTTAATVAAMFPPWSAAAGVPFSLNVQYRINGLGVTMDVLNKNQKLIANAFNKALLSIQNGFTATNSALAKIQSVVNANAQALNSLLQQLFNKFGAISSSLQEILSRLDNLEAQVQIDRLINGRLTALNAYVSQQLSDITLIKAGASRAIEKVNECVKSQSPRINFCGNGNHILSLVQNAPYGLLFIHFSYKPTSFKTVLVSPGLCLSGDRGIAPKQGYFIKQNDSWMFTGSSYYYPEPISDKNVVFMNSCSVNFTKAPFIYLNNSIPNLSDFEAELSLWFKNHTSIAPNLTFNSHINATFLDLYYEMNVIQESIKSLNSSFINLKEIGTYEMYVKWP
notes: Sino Biological; 6xHis
With B3, in test [8], the binding result was “no binding (tested: 13 nM)”.

B4: NRCoV2-S2A4 VHH (VHH)
VHH: QVQLVQSGGGLVQAGGSLRLSCAVSGSPFRSNVMEWYRQAPGKQRELVASISTGGSRTYTDSVKGRFTISRDNAKNEAFLQMNSLKPEDTAVYYCHAAARDSHGIYLLDTWGQGTQVTVSS
Take B4: the “End 1st inj (RU)” value in test [9] stood at 11.6 RU. For the same molecule, the binding result in test [10] is listed as “no binding (tested: 40 nM)”.

B5: NRCoV2-07 VHH (VHH)
VHH: QVQLVQSGGGLVQPGGSLRLSCAASGVTLDYYAIGWFRQAPGKEREAVSCISSNGRRNHYVASVRGRFTISRDNAKSTVYLQMNSLKPEDTAVYYCAAVQDVHGDNYYCTSPNEYNVWGQGTQVTVSS
Take B5: the “End 1st inj (RU)” value in test [9] stood at 19.1 RU. Moreover, the binding result in test [11] is reported as “no binding (tested: 20 nM)”.

B6: NRCoV2-MRed05 VHH-Fc (Fc fusion)
chain: EVQLVESGGGLVQPGGSLRLSCAASGFTLDYYAIGWFRQAPGKEREGVSCISSSDGSTLYADSVKGRFTISRDNAKNTVYLQMNSLKPEDTAVYYCATGPQAYYSGSYYFQCPQAGMDYWGKGTQVTVSS
With B6, the binding result with RBD_SARS-CoV (aa306-527) is reported as “no binding”; in test [2] it was “no binding (tested: 13 nM)”; in test [3], “no binding (tested: 13 nM)”; with SARS-CoV spike (S) it was “no binding (tested: 13 nM)”. Also, the dissociation constant Kd (as a rule, the free concentration of one partner at which half of the binding sites on the other are occupied at equilibrium, for simple one-to-one binding) came to 0.905 nM with RBD (aa319-541) (Wuhan) [1] and 0.91 nM with RBD (aa319-541) (Wuhan) [4]. The same molecule had a dissociation rate constant (koff) with RBD (aa319-541) (Wuhan) [1] of 0.000509 s⁻¹. The molecule further came in with an on-rate constant (kon) with RBD (aa319-541) (Wuhan) [1] of 562000 M⁻¹ s⁻¹. In addition, the Bmax in test [5] was 17300. In addition, in [5], the EC50 – broadly, the concentration needed to bring the measured effect to its halfway point – amounted to 0.5 nM.

B7: NRCoV2-02 VHH-Fc (Fc fusion)
chain: EVQLVESGGGLVQAGGSLRLSCAASGFTFSNYAMNWVRQAPGKGLEWVSGISGRGDDTRYADSVKGRFTISRDNAKNTLFLQMRSLRPEDTGVYRCTKGPDLYYFGSGYSDRGQGTQVTVSS
notes: bivalent
Consider B7, for which the binding result in test [12] is “no binding”. Further, the figures for the EC50 in [13] and in test [14] were 0.1 nM and 0.11 nM, respectively.
